Laboratory results taken from paper PMC4463592.

Experiments:
[1] = test system: human enolase alpha (ENO1) (Homo sapiens); test: EMSA; settings: apparent Kd, one value given for all three isoforms; none (unmodified transcript); 20 mM Tris-HCl pH 7.5, 150 mM NaCl, 10 mM MgCl2, 5 mM DTT, 10% glycerol, 0.1 mg/mL BSA, 30 C 15 min; native 8% PAGE in 0.5x Tris-borate pH 8.3, 5% glycerol
[2] = test system: human enolase beta (ENO3, muscle) (Homo sapiens); test: EMSA; settings: apparent Kd, one value given for all three isoforms; none (unmodified transcript); 20 mM Tris-HCl pH 7.5, 150 mM NaCl, 10 mM MgCl2, 5 mM DTT, 10% glycerol, 0.1 mg/mL BSA, 30 C 15 min; native 8% PAGE in 0.5x Tris-borate pH 8.3, 5% glycerol
[3] = test system: human enolase gamma (ENO2, neuronal) (Homo sapiens); test: EMSA; settings: apparent Kd, one value given for all three isoforms; none (unmodified transcript); 20 mM Tris-HCl pH 7.5, 150 mM NaCl, 10 mM MgCl2, 5 mM DTT, 10% glycerol, 0.1 mg/mL BSA, 30 C 15 min; native 8% PAGE in 0.5x Tris-borate pH 8.3, 5% glycerol
[4] = test system: preKARS2 (precursor of mitochondrial lysyl-tRNA synthetase) (Homo sapiens); test: EMSA; settings: apparent Kd with human enolase gamma present; no ternary complex detected; none (unmodified transcript); 20 mM Tris-HCl pH 7.5, 150 mM NaCl, 10 mM MgCl2, 5 mM DTT, 10% glycerol, 0.1 mg/mL BSA, 30 C 15 min; native 8% PAGE in 0.5x Tris-borate pH 8.3, 5% glycerol
[5] = test system: preKARS2 (precursor of mitochondrial lysyl-tRNA synthetase) (Homo sapiens); test: EMSA, Scatchard; settings: no enolase; 0.5 uM preKARS2 (Methods print 0.5 mM); none (unmodified transcript); 20 mM Tris-HCl pH 7.5, 150 mM NaCl, 10 mM MgCl2, 5 mM DTT, 10% glycerol, 0.1 mg/mL BSA, 30 C 15 min; native 8% PAGE in 0.5x Tris-borate pH 8.3, 5% glycerol

tRK1 (yeast tRNALys acceptor 1) T7 transcript
Kd [1]: 2 µM
Kd [2]: 2 µM
Kd [3]: 2 µM
Kd [4]: < 0.02 µM
Kd [5]: 0.3 µM
